Experimental data taken from the supplement of paper PMC9170038.

System: MS2 coat protein
Experiment: apparent KD of MS2 coat protein; designed switch direction (-1 OFF switch, 1 ON switch): -1; higher = weaker reporter binding
Procedure, shortened: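 The reported apparent KD is a per-design median over clusters, from curve fits of normalised cluster fluorescence. Protein titrations used SNAP-549-labelled MS2 coat protein, doubled from 0.7 or 1.5 nM to 3 µM, in Tris-HCl pH 7.5 buffer with KCl, MgCl2, BSA, DTT, tRNA and Tween-20, with no input, 200 uM small-molecule ligand, or an oligonucleotide input. The RNA switches were transcribed on Illumina chips by stalled E. coli RNA polymerase.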

[1] = input ligand: microRNA oligo, concentration not stated
[2] = Eterna round: R95, input ligand: microRNA oligo, concentration not stated
[3] = Eterna round: R95, input ligand: FMN 200 uM
[4] = Eterna round: R95, input ligand: none

With “CCAAGAAUAGGAUAUACACCAUGUCAGCUUCUAUACAUCGCACAUGAGGAUCACCCAUGUAGAAGGGUUCUCUC [Exclusion-2-#4] (Eterna round: R97, puzzle: Exclusion 2)” the “apparent KD of MS2 coat protein” value (input ligand: FMN 200 uM) was 369 nM and the “apparent KD of MS2 coat protein” value (input ligand: none) was 282 nM.
“UGAGCUUACGUAGGAUAUGAGGAUCACCCAUAGAAGGAUAUCGAAAGAGAAGGUCUGAGGAUUACCCAGAAGGACGUGGGCUCU [pwkr exNG2 2xF5 2xFMN.12] (Eterna round: R96, puzzle: Exclusion NG 2)” was tested, and the “apparent KD of MS2 coat protein” value (input ligand: FMN 200 uM) was 732 nM, the “apparent KD of MS2 coat protein” value [1] was 122 nM and the “apparent KD of MS2 coat protein” value (input ligand: none) was 151 nM.
With “AAAAUACGCACAGGAUAUCAAUACAUGAGGAUCACCCAUGUAACAUGGACUGGUCAGCAGAAAAGUGAGAAGGGUGCUGACGAC [Beraon] (Eterna round: R96, puzzle: Exclusion NG 2)” the “apparent KD of MS2 coat protein” value (input ligand: FMN 200 uM) was 187 nM, the “apparent KD of MS2 coat protein” value [1] was 31.6 nM and the “apparent KD of MS2 coat protein” value (input ligand: none) was 45.6 nM.
“AGAUCACAUGAGGAUCACCCAUGUCAGGAUAUGAUACUAUGUACUUCGGUACAUAGUAUCAGAAGGGACUUAAA [Ex1-3: 70] (puzzle: Exclusion 1)” was tested, and the “apparent KD of MS2 coat protein” value [2] was 101 nM.
With “UUCACAUGGACAUGAGAUCACAUGAGGAUCACCCAUGUGAAUAACAAGCUUUUUGCUCGUCUUAUGUCCAAUAAUAA [Stov1/14-C1] (Eterna round: R97, puzzle: Sensor, turn-off variant 1)” the “apparent KD of MS2 coat protein” value (input ligand: FMN 200 uM) was 14 nM and the “apparent KD of MS2 coat protein” value (input ligand: none) was 12.8 nM.
With “CCUCGACAUGAGGAUCACCCAUGUCAGGAUAUUGUGUAUCGGGUUUUUUACGGAAAGGCGAGAAGGGAUGUGUG [LRO-Excl1-10] (puzzle: Exclusion 1)” the “apparent KD of MS2 coat protein” value [2] was 15.5 nM.
For “CUGGUCCGAGGAUAUAUUAUGUGAUACAUGAGGAUCACCCAUGUUAUAUGAUGGAUAUUAAUAGAAGGCGGACUAG [Mat - Exclusion 5 - JL mod - D73] (puzzle: Exclusion 5)”, the “apparent KD of MS2 coat protein” value [3] was 85.5 nM, the “apparent KD of MS2 coat protein” value [2] was 71.5 nM and the “apparent KD of MS2 coat protein” value [4] was 83.9 nM.
For “GCAGGAUAAGUGAGGAUAUACCUAUGGAUACAUAGGUAGAAGGCACAUGAGGAUCACCCAUGUUACUCGCCUGC [Fiskers BMX 4 - 75] (puzzle: Brourd's mod of Exclusion 4)”, the “apparent KD of MS2 coat protein” value [3] was 41.7 nM, the “apparent KD of MS2 coat protein” value [2] was 12.9 nM and the “apparent KD of MS2 coat protein” value [4] was 10.9 nM.
In the case of “UCUGUACAUCCCAAGCAUAACAUGAGGAUCACCCAUGUUGAACAAAACGUCGGUCCUGCUGCUCGUCGAAGGAAUAG [Eternabot (Original) Solution 8] (Eterna round: R97, puzzle: Sensor, turn-off variant 1)”, the “apparent KD of MS2 coat protein” value (input ligand: FMN 200 uM) is reported as 47.4 nM and the “apparent KD of MS2 coat protein” value (input ligand: none) is reported as 47.5 nM.
“UUGAACUUAGGAUAUUGGUUCAGCUACAUGAGGAUCACCCAUGUGGUACCUAGCUGAGGUCAAGAAGGGAGUGUUG [EX5 B.12] (Eterna round: R97, puzzle: Exclusion 5)” was tested, and the “apparent KD of MS2 coat protein” value (input ligand: FMN 200 uM) was 25.6 nM and the “apparent KD of MS2 coat protein” value (input ligand: none) was 20.6 nM.
With “AAAAACAAGCCCAUGCUCGUCUUAAGAUCGAAAGAUCAAACAUGAGGAUCACCCAUGUGCGAGCAUGGGUGAUCCUC [Sensor v2, turn off variant 2 (JL Turnoff v2 4 - MOD3)] (Eterna round: R96, puzzle: Sensor v2, turn-off variant 2)” the “apparent KD of MS2 coat protein” value (input ligand: FMN 200 uM) was 21.9 nM, the “apparent KD of MS2 coat protein” value [1] was 10.2 nM and the “apparent KD of MS2 coat protein” value (input ligand: none) was 16.6 nM.
“CACAGGAGACGGAGAUCCAACAUGAGGAUCACCCAUGUCUCAAAAGCUUUUUGCUUGUCUUAUCCUCCUCUCUUGAC [Mat - Sensor, turn-off var - Eli Mod - D60] (Eterna round: R97, puzzle: Sensor, turn-off variant 1)” was tested, and the “apparent KD of MS2 coat protein” value (input ligand: FMN 200 uM) was 26 nM and the “apparent KD of MS2 coat protein” value (input ligand: none) was 28.1 nM.
For “AAGUCGACGGUGAGGAUAUAGGUUGAACGACAGAUCUAGAAGGUACAUGAGGAUCACCCAUGUGGGUAACGUCG [Brourd's EX4 #36] (Eterna round: R97, puzzle: Brourd's mod of Exclusion 4)”, the “apparent KD of MS2 coat protein” value (input ligand: FMN 200 uM) was 54.8 nM and the “apparent KD of MS2 coat protein” value (input ligand: none) was 98.2 nM.
With “AAUUCACAUGAGGAUCACCCAUGUCAGGAUAUGGUUUCACGUGUUUCGGUGCGUGAGGCCAGAAGGGACAGCUA (puzzle: Exclusion 1)” the “apparent KD of MS2 coat protein” value [2] was 49.7 nM.
For “UUUAUGUAAGGAUAUAUGAGUCACGGAAAUAAACCGUGAAGAUAGAAGGUACAUGAGGAUCACCCAUGUAAGGC [Mod of Anonveat 8 - Jieux - Exclusion 4] (Eterna round: R97, puzzle: Exclusion 4)”, the “apparent KD of MS2 coat protein” value (input ligand: FMN 200 uM) was 40.1 nM and the “apparent KD of MS2 coat protein” value (input ligand: none) was 22.9 nM.
“AAAAUGUAAGGAUAUCGUUCACUUGACAAAAGUCAAGUGAACGAGAAGGUACAUGAGGAUCACCCAUGUAUGGG [-29.9, -29 kcal, A 38%] (Eterna round: R97, puzzle: Exclusion 4)” was tested, and the “apparent KD of MS2 coat protein” value (input ligand: FMN 200 uM) was 131 nM and the “apparent KD of MS2 coat protein” value (input ligand: none) was 1340 nM.
In the case of “AGUACUAUCACGAAAGUGAUAGUACAAAGAGCAAGUGGAACAUGAGGAUCACCCAUGUCCUCAUAUGCUCGUCUUAU [salish99-s2-v2-x003] (Eterna round: R96, puzzle: Sensor v2, turn-off variant 2)”, the “apparent KD of MS2 coat protein” value (input ligand: FMN 200 uM) is reported as 14.6 nM, the “apparent KD of MS2 coat protein” value [1] is reported as 322 nM and the “apparent KD of MS2 coat protein” value (input ligand: none) is reported as 16.1 nM.
